Experimental data: paper PMC4347215 (Nature Communications, 2015)

B1: monoclonal antibody CD6 (whole IgG) (antibody, V domains shown)
VH: QVKLQESGGGLVQPKGSLKLSCAASGFTFNTYAMNWVRQAPGKGLEWVARIRSKSNNYATFYADSVKDRFTISRDDSQSMLYLQMHNLKTDDTAMYYCVRPSIYYYASGYLDVWGAGTTVTVSS
VL: QIVLSQSPAILSASPGEKVTMTCRTSSSVSYMHWYQQKPGSSPKPWIYATSNLASGVPFRFSGSGSGTSYSLTISRVEAEDAATYYCQQWNSNPPTFGGGTKLEIK
notes: copies: 2 + 2
B2: CD6 Fab (Fab, V domains shown)
VH: B1 VH
VL: B1 VL
B3: CD6 Fab2 (other)
VH: B1 VH
VL: B1 VL
notes: F(ab')2 fragment; copies: 2 + 2

Key:
[1] = biological target: recombinant CA/09 NA (neuraminidase of A/California/07/2009) (Influenza A virus A/California/07/2009 …, UniProt C3W5S3); experiment: BLI; conditions: both partners purified
[2] = biological target: NA (CA/09) as antigen of the ELISA of Supplementary Fig. 5 (Influenza A virus A/California/07/2009 …, UniProt C3W6G3, strain); experiment: ELISA
[3] = biological target: recombinant CA/09 NA, thrombin-cleaved (His-tag depleted) (influenza A virus A/California/07/2009 …, UniProt C3W5S3, N-linked glycans seen at Asn88, Asn146 and Asn235); experiment: crystal structure; conditions: both partners purified

Row | Binder | Kd [1] | binding result [2] | stoichiometry N [3]
1 | B1 | ~95 nM | binds | 
2 | B2 |  | binds | 4 Fabs per NA tetramer
3 | B3 |  | binds | 
